Test results reported in patent EP0751225B1, “Process for the identification of proteolytic activities and/or inhibitors thereof” (TECNOGEN S.C.P.A., priority 1990, dated 1992).

Target: T1, ET [16-29] (Homo sapiens, UniProt P05305)
T1 construct: made in house; host or cells: chemical solid-phase peptide synthesis (Fmoc)
Test: Capacity of affinity chromatography columns prepared with the immobilized peptides (retention of injected ET [16-29])
Assay type: binding
Settings: 500 microlitres of ET [16-29] at 1 mg/ml injected; peptide immobilized on EUPERGIT C30 N; 0.1 M TRIS HCL pH 6.8, 1 ml/min
Experimental: The peptides Δ ET [16-29] and 8 Δ ET [16-29] have immobilized on a support previously activated through the introduction of epoxide groups (EUPERGIT C30 N), employing the same peptide/support ratio. The peptides 8 Δ ET [16-29] (2 mg) and Δ ET [16-29] (2 mg) have been dissolved separately in 10 ml of 0.1 M […], 0.5 M NaCl, pH 8.5, and added separately to two aliquots of 1 g of EUPERGIT C30 N. The mixtures have been incubated for 24 hours under stirring at room temperature. The introduction of the peptides within the resin has been followed by means of RP-HPLC, and after 24 hours an amount of about 80 % of the peptide initially present in the two preparations turned out to be covalently linked to the support. Such incorporation percentage has been then confirmed by analysis of amino acids, which analysis were carried out on weighed amounts of the two derivatized resins.
The two derivatized peptide supports were employed for filling two glass columns for affinity chromatography (80 x 6.6 mm I.D., total volume 2.3 ml) that were equilibrated with 0.1 M TRIS* HCL, at pH 6.8 and with a flowrate of 1 ml/min. The eluent was continuously monitored by means of optical absorption determinations at 280 nm wavelength. For determining the capacity of the columns, 500 microlitres of ET [16-29] dissolved at a concentration of 1 mg/ml in the elution buffer were injected. […]

injected material retained by the column: 50%
Sequence: RKFLAGLRARRLKF [Δ ET [16-29]]
